The nanobody polyreactivity screen of Harvey et al. (2022)

Test: yeast display, Sf9 membrane polyspecificity reagent, FACS + sequencing; frameworks hold sequencing errors
Outline: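 In a synthetic yeast display library (Saccharomyces cerevisiae BJ5465), nanobody expression was induced with galactose for 36–48 hours. FACS gates were set low and high (top ~1%) using anti-HA fluorescence for expression and streptavidin fluorescence for binding of the Sf9 membrane reagent. Each polyreactivity label is drawn from the gate of origin.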

| Sequence | polyreactivity (PSR sort gate) |
| --- | --- |
| QDQLVESGGGLVQAGGSLRLSCAASGFTFVINDMGWYRQAPGKERELVADITSGGDTYYADSVKGRFTISRDNAKNTVYLQMNSLKPEDTAVYYCNTDTYFPLYDYWGQGTQVTVSS | low polyreactivity |
| QVQLVESGGGLVQAGGSLRLSFAASGFTLVGYTMGWYRQAPGKERELVAAINWSGGRTYYADSVKGRFTISRDNAKNTVYLQMNSLKPVDTAVYYCAADSLRYKKYYYWGQGTQVTVSS | high polyreactivity |
| QVQLVESGGGLVQAGGSLRLSCAASGRIFGRYAMGWYRQAPGKERELVAAISGGGSTNYADSVKGRFTISRDNAKNTVYLQMNSLKPEDTAVYYCAADDDWSGVEFDYWGQGTQVTVSS | low polyreactivity |
| QVQLVESGRGLVQAVGSLRLSSAASGSIFMWYTMGCYRQAPGKERELVAAISKSGGRTYYADSVKGRFTISRDNAKNTVYLQMNSMKPEDTAVYYCAKLYPYDSPVPDGHQFDYWGQGTQVTVSS | high polyreactivity |
| QVQLVESGGGLVQSGGSLRLSCAASGSIFSAYAMGWYRQAPGKEREFVAAITRRGGNTYYADSVKGRFTISRDNAQNTVYLQMNSLKPEDSAVYYCAADAGGGPFDYWGQGTQVSVSS | low polyreactivity |
| QVQLVESGGGLVQAGGSLRLSCAASGSTFLDYTMGWYRHAPGKERELVAVIYYRAGSTYYADSVKGRFTISRDNAKNTVYLQMNSLKPEDTAVYYCNADYYNFWRRRRYLWYESWGQGTQVTVSS | low polyreactivity |
| QVQLVESGGGLVQAGGSLRLSCAPSGLIFGRYAMGWYRQAPGKERELVAAISSSGVRTYYADSVKGRFTISRDNAKNTVYLQMNSLKPEDTAVYYCAAAYWSSREDTVIKRYYWGQGTQVTVSS | high polyreactivity |
| QVQLVESGGGLVQAGGSLRLSCAASGGTSIPYAMGWYRQAPGKERELVAAITRSGGRTYYADSVKGRFTISRDNAKNTVYLQMNSLKPEDTAVYYCAAAYYRWGYTVTVIKQFGYWGQGTQVTVSS | high polyreactivity |
| QVQLVESGGGLVQAGGSLRLSCAASGFTFVYYAMGWYRQEPGKERELVAAISRSGGSTYYADSVKGRFTISRDNAKNTVYLQMNSLKPEDTEVYYCAAVTYANYYYDAYYYWGQGTQVTVSS | high polyreactivity |
| QVQLVESGGGLVQAGGSLRLSCAASGRIFVKYTMGWYRQAPGKERELVAAIDFDTDSTYYADSVKGRFTISRDNAMNTVYLQMNSLKPEDTAVYYCAADQYYYWYTHQSIGYDYWGQGTQVTVSS | low polyreactivity |
| QVQLVESGGGLVQAGGSLRLSCAASGSIFRVYMGWYRQAPGKERALVATIRWSSGSTYYADSVKGRFTISRDNAKNTVYLQMNSLKPEDTAVYYCAVKGPYYDDYDYWGQGTQGTVSS | low polyreactivity |
| QDQLVESGGGLVQAGGSLRISCGASGRIFDIYAMGWYRQAPGKERELVADITSGGSTYYADSVQGRFTISRVNAKNTVYLQMNSLKPEDTAVYYCAARLFADYWGQGTHVTVSS | low polyreactivity |
| QVQLVESVGGLVQAGGSLRLSCASSGITFWYYAMGWYRQAPGKERELVAAISYSGDSTYYADSVKGRFTISRDNAKNTVYLQMNSLKPEDTAVYYCAARTRAGAWTSKYHDYWGQGTQGTVSS | high polyreactivity |
| QVQLVESGGGLDQAGGSLRLSCAASGLIFSQYTMGWYRQAPGKERELVASITWRGGSTYADSVKGRFTISRDNAKNTVYLQMNSLKPEDTAVYYCAADYKPSYYLRQSYGYWGQGTQVTVSS | low polyreactivity |
| QVQLVESGGRLVQAGGSLRLSCAASGSIFTVYAMGCYRQAPGKERELVAAIRRTGSRTYYADSVKGRFTNSRDNAKNTVYLQMNSLKPEDTAVYYCAADVWFDRRSVRLNYWGQGTQVTVSS | high polyreactivity |
| QVQLVESGGGLVQAGGSLRLSCAPSGRILGYYAMGWYRQAPGKERELVAAISSGDSTNYADSVKGRFTISRDNAKYTVYLQMNSLKPEDTAVYYCAAKGWIWNAYNYWGQGTQVTVSS | low polyreactivity |
| QVQHVESGGGLVQAGGSLRLSCAASGRTFQYNTMGWYRQAPGKERELVAAISWGGGSTYYADSVKGRFTISRDNAKNTVYLQMNSLKPEDTAVYYCAATHYRGKGYYYWGQGTQLTVSS | low polyreactivity |
| QVQLVESVGGLVQAGGSLRLSCAASVRTFYNYSMGWYRQAPGKERELVAGISRRGGSTYYADSVKGRFTISRDNAKNTVYLQMNSLKPEDTAVYYCIEDLVRPGYYRYDYRGQGTQVTVSS | high polyreactivity |
| QVQLVESGGGLVQAGGSLRLSCAASGRIFPFNDMGWYREAPGKEREFVADISDNGGSTYADSVKGRFTISRDNAKNTVYLQMNSLKPEDTAVYYCNAVYTSYRGGYYYWGQGTQGTVSS | low polyreactivity |
| QVQLVESGGGLVQAGGSLRLSCPASGRIFPRYAMGWYRPAPGKERELVARITRRGGITYYADSVKGRFTISRDNAQNTVYLEMNSLKPEDTAVYYCNVDYYRGGDFSYGYDYWGQGTQLTVSS | high polyreactivity |
| QVQLVESGGGLVQAGGSLRLSCAASGRIFNPYAMGWYRQAPGKEREFVAAIRWSSGSTSYADSVKGRFTISRDNAKNTVYLQMNSLKPEDTAVYYCNTRSHSYYTLWGASRPRFDYWGQGTQVTVSS | high polyreactivity |
| QVQLVESGGGLVQAGGSLRLSCAASGRTFRYYVMGWYIQAPAKERELVARISYSAGSTYYADSVKGRFTISRDNAKKTVYFQMNSLKPEDTAVDYCNAGGNFKDYGHYYWGQCTQVTVSS | high polyreactivity |

| Sequence | polyreactivity (PSR sort gate) |
| --- | --- |
| QVQLVESGGGLVQAGGSLRLSCAASGYTFLANAMGWYRQAPGKERELVAAISSGGTTYYADSVKGRFTISRDNAKNTVYLQMNSLKPEDTAVYYCAAKDTTVFYYDDDYWGQGTQVTVSS | low polyreactivity |
| QVQLVESGGGLVQAGGSLRLSCAASGFIFTPYAMGWYRQAPGKERELVAAISRSAGSTYYADSVKGRFTISRDNAKNTVYLQMNSLKPEDTAVYYCAADSLTYIAYDYWGQGTQVTVSS | high polyreactivity |
| QVQLVESGGGLVQAGGSLRLSCAASGSTFEFYAMGWYRQAPGKERELVASITSSSGPTYYADSVKGRFTISRDNAKNTVYLQMNSLKPEDTAVYYCAKRPIRYYHLLRGNYWGQGTQVTVSS | low polyreactivity |
| QVQLVESGGGLVQAGGSLRLSCAASGFTFGSYAMGWYRQAPGKERELVAAISTSGDTTYYADSVKGRFTISRDNAKNTVYLQMNSLKPEDTAVYYCAAYDWGWPYTLIPFYYWGQGTQVTVSS | low polyreactivity |
| QVQLVESGGGLFQAGGSLRLICAASGRTFVVYAMGSYRQAPGKEWELVAAISWSGGRTYYADSVKGRFTMSRDNAKNTVYLQMNTLKPEDTAVYYCPAEVYLYKYVYYYWGQGTQVTVSS | high polyreactivity |
| QVQLVESGGGLVQAGGSLRLSCAASGRIFQWYAMGSYRQAPGKERELVATISDGDSTNYADSVKGRFTISRDNAKNTVFAQMNSLKTEDTEVYYCAALDSYYDSYYWYDYWGQGTQVTVSS | high polyreactivity |
| QVQLVESGGGLVQAGGSLRLSCAASGSTFAYYVMGWYRQAPGKERELVAAITSSGGRTYYADSVKGRFTISRDNAKNTVYLQMNSLKPEDTAVYYCAKVSQRRVDNSDYDYWGQGTQVTVSS | high polyreactivity |
| QVQLVESGGGLVQAGGSLRLSCAASGRIFYPYAMGWYRQPPGKERELVAAIDKGGGSTYYADSVKGRFTISRDNAKNTVYLQMNSLKPEDTAVYYCAAGWEYPYDYWGQGTQVTVSS | low polyreactivity |
| QVQLVESGGGLVQAGGILRLSCAASGLSFSWYDMGWYRQAPGKERELVAAITTDGDDTYYADSVKGRFTISRDNAKNTVYLQMNSLKPEDTAVYYCAADSELAIRYPDRDYDSWGQGTQVTVSS | low polyreactivity |
| QVQLVESGGGLVQAGGSLRLSCAASGRIFAYNAMGWYRQAPGKERELVAAISSSDDDTYYADSVKGRFTISRDNAKNTVYLQMNSLKPEDTAAYYCAAEWDTDRLWAGPRGSLYDYWGQGTQVTVSS | high polyreactivity |
| QVQLVESGGGLVQAGRSLRLSCAASGSTYSLDAMGWYRQAPGKERELVAAISWSDGSTYYADSVKGRFTISRDNAKNTVYLLMNSLKPEDTAVYYCGADSTVRPYVHSGDYWGQCTQVTVSS | low polyreactivity |
| QVQLVESGGGLVQAGGSLRLSCAASGRIFSRNAMGWYRQAPGKERDLVAAITWRGGSTNYADSVKGRFTISRDNAKNTVYLQMNSLKPEDTAVYYCAARISRYPQDDSDYWGQGTQVTVSS | high polyreactivity |
| QVQLVESGGGLVQAGGSLRLSCSASGFTYDYYAMGWYRQAPGKERELVATISVSAVSTSYADSVKGRFTISRDNAKNTVYLQMNSLKPEDTAVYYCAASRGPYYYHYSGSLKSFDYWGQGTQVTVSS | low polyreactivity |
| QVQLVESGGGLVQAGGSLRLSCAASGFIFDYYAMGWYRQAPGKERELVAAIDDSGGSTYYADSVKGRFTISRDNAKNTVYLQMNSLKPEDTAVYYCNAGVGWHSYYSNYDYWGQGTQVTVSS | low polyreactivity |
| QVQLVESGGGLVQAGGSLRLSCAASGFTFVTNAMGWYRQAPGKERELVAAISRRGGSTYYADSVKGRFTISRDIAKNTVNLEMNSLKPEDTAVYYCNADRQRRRQFSFSSPYDYWGQGTLVTVSS | high polyreactivity |
| QVQLVESGGGLVQAGGSLRLSCAASGRTFTGYAMGWYRQAPGKEREFVAAITQRGGSTYYADSVKGRFTISRDNEKNTVYLQMNSLKAEDTAVYYCAARRRYKMDYWGQGTQVTVSS | high polyreactivity |
| QVQLVESGGGLVQAGGSLRLSCAASGSIFSPYDMGWYRQAPGKERELVASITWRRGNTYYADSVKGRFTISRDNAKNTVYLQMNSLKPEDTAVYYCAATRGAQTPQTRKKRGFDYWGQGTQVTVSS | low polyreactivity |
| QVQLVESGGGLVQAGGSLRLSCAASGSNFFFNTMGWYRQAPGKERELVAVITSGGSTYYADSVKGRFTISRDNAKNTVYLQMNSLKPEDTAVYYCAARYLPYRRIKYDYWGQGTQVTVSS | low polyreactivity |
| QVQLVESGGGLVQAGGSLRLSCAASGRTFIVNTMGWYRQAPGKERELVAAITARGGRTYYADSVKGRFTISRDNAKNTVYLQMNSLIPEDTAVYYCNASTPPREAERYYWGQGTQVTVSS | low polyreactivity |
| QVQLVESGGGLVQAGGSLRLSCAASGRTLLAYAMGWYRQAPGKEREFVAAISSRGVRTYYADSVKGRFTISRDNAKNTVYLQMNSLKPEDTAVYYCATRGTKSIKDVPGFRYGYWGQGTQVTVSS | high polyreactivity |
| QVQLVESGGGLVQAGGSLRLSSAASGLIFYWYAMGWYRQAPGKERELVAAISSAGSTNYADSVKGRFTISRDNAKNTVYLQMNSLKPEDTAVYYCAKGGYSPKSVKYYDYWGQGTQVTVSS | low polyreactivity |
